Data as given in patent US20050214312A1 (ANTIGENICS, published 2005).

Columns and labels:
[1] = target: T1, recombinant human or murine heat shock protein 70 (hsp70) (human or murine); test: binding affinity for HSP70, binding inhibition assay
[2] = target: T1, recombinant human or murine heat shock …; test: binding inhibition assay (Hill plot) against labeled reference hybrid antigen on hsp70

T1 sequence (A8K5I0 entry or part of it): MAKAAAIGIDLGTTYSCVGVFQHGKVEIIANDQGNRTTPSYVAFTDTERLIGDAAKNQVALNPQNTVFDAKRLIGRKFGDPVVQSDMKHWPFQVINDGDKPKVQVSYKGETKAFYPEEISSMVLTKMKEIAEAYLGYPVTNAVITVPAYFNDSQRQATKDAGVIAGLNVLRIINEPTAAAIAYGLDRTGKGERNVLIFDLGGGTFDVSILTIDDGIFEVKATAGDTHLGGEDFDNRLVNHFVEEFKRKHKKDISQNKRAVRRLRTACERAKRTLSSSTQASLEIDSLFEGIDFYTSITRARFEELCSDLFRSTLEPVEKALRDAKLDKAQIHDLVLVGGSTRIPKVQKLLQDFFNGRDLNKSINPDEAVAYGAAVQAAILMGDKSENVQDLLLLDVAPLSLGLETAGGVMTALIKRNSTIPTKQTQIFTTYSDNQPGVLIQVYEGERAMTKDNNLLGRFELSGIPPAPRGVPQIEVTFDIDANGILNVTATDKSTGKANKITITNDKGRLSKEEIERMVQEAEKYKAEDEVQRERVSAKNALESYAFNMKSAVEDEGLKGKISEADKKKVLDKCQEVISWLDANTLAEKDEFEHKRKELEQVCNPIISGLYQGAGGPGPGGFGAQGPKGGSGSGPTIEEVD

Row | Binder | Kd [1] [nM] | Kd [2] [nM]
1 | NLLRLTGWFRSIINFEKL | 1500 | –
2 | NLLRLTGWFFRKSIINFEKL | 2200 | 2200
3 | SIINFEKL [SIINFEKL (ovalbumin amino acids 257-264)] | – | 235000
4 | NLLRLTGWGSGSIINFEKL | 1600 | 1600
5 | NLLRLTGWRKSIINFEKL | 800 | 800
6 | NLLRLTGWAKVLSIINFEKL | 2000 | –
7 | NLLRLTGWQLKSIINFEKL | 400 | –
